Assay results: FireProtDB (doi:10.1074/jbc.m110728200)

Conditions: Homo sapiens; pH 2.7; Thermal; DSC; Gly-HCl 0.05 M; whole UniProt chain shown

B1: Lysozyme C wild type, P61626 (protein)
chain: MKALIVLGLVLLSVTVQGKVFERCELARTLKRLGMDGYRGISLANWMCLAKWESGYNTRATNYNAGDRSTDYGIFQINSRYWCNDGKTPGAVNACHLSCSALLQDNIADAVACAKRVVRDPQGIRAWVAWRNRCQNRDVRQYVQGCGV
Tm: 64.9 °C
heat capacity change of unfolding: 1.58 kcal/mol/K
unfolding enthalpy (calorimetric): 114 kcal/mol
